The target of test [1] is T1, mature IGF-II (human, UniProt P01344 25-91).
T1 construct: also called mature form of IGF-II
Put plainly: ELISA, 50 ng mature IGF-II immobilized, OD405.
Method: (§1) Binding of the antibodies was measured by ELISA with 50 ng of either mature or precursor IGF-II immobilized on plates.

Test [2] has as its target T2, long IGF-II (IGF-II precursor) (human, UniProt P01344 25-180).
T2 construct: Expressed in E. coli as His-tagged long IGF-II; also called long His6-IGF-II; His-tagged long IGF-II; not shown: His6 tag from the E. coli expression vector (pRSET)
The experiment in a line: Biacore SPR, Fab on long IGF-II. Background: In SPR one partner is held on a chip, and binding of the other changes the refractive index at the surface.

Test [3] addresses T2, long IGF-II (IGF-II precursor). The experiment in a line: ELISA, Fab on immobilized long IGF-II. A general note: An ELISA detects its analyte on a solid surface through an enzyme-linked reagent.
Test [4] shares this target. The experiment in a line: Biacore 1000 SPR, IGF-II immobilized on CM5 chip, Fab injected, 1:1 Langmuir fit, 25° C.
Method: The binding of the Fabs was measured by using ELISA and Biacore surface plasmon resonance technology. […] Interactions between various Fabs and IGF-II were analyzed by surface plasmon resonance technology using a BIACORE 1000 instrument (Biacore, Pharmacia, Piscataway, N.J.). IGF-II was covalently immobilized onto a sensor chip (CM5) using carbodiimide coupling chemistry. A control reference surface was prepared for nonspecific binding and refractive index changes. For analysis of the kinetics of interactions, varying concentrations of Fabs were injected at flow rate of 30 μl/min using running buffer containing 150 mM NaCl, 3 mM EDTA, and 0.005% P-20 (pH 7.4). The association and dissociation phase data were fitted simultaneously to a 1:1 Langumir global model by using the nonlinear data analysis program BIAevaluation 3.2. All the experiments were performed at 25° C.
Biacore analysis was used to examine their binding affinities in more detail.
Test [5] has as its target T3, BSA (Bos taurus, UniProt P02769).
T3 construct: also called bovine serum albumin
Put plainly: ELISA, antigens immobilized on the plate, single Fab concentration not shown, OD405.

Test [6] has as its target T4, IGF-I (UniProt P05019 49-118).
T4 construct: also called insulin-like growth factor I
The test is described as above.

The target of test [7] is T2, long IGF-II (IGF-II precursor). Put plainly: ELISA, long IGF-II immobilized at 50 ng/well, bound Fab detected with anti-FLAG-HRP, OD405.
The target is the same in test [8]. Put plainly: ELISA, 50 ng long (precursor) IGF-II immobilized, OD405.
Method: as §1

T3 sequence (P02769 25-607 limits assumed): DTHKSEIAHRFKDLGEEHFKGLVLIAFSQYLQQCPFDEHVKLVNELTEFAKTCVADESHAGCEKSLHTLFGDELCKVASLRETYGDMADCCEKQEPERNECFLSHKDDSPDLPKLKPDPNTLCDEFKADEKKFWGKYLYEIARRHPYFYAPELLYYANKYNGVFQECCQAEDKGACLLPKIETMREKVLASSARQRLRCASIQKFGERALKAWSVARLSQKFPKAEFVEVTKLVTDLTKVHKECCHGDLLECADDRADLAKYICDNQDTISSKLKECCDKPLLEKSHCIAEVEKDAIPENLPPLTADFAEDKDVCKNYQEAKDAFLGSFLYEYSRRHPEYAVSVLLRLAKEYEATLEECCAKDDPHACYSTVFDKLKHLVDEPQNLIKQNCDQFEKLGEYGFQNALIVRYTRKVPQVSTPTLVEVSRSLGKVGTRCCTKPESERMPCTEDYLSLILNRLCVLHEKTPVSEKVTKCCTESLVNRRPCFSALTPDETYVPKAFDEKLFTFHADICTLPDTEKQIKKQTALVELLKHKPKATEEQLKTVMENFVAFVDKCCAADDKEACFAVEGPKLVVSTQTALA

B1: IgG1 m606 (antibody, V domains shown)
VH: QVQLVESGAEVKKPGASVKVSCKASGYTFTSYYMHWVRQAPGQGLEWMGIINPSGGSTSYAQKFQGRVTMTRDTSTSTVYMELSSLRSEDTAVYYCARDRSIAAMGWFDHWGQGTLVTVSS
VL: DIQMTQSPSSVSASVGDRVTITCRASQGISSWLVWYQQKPGKAPKLLIYAASRLQSGVPSRFSGSGSGTLFTLIINNLQPEDFATYYCQQSNSVPLTFGGGTKVEIKR
notes: Whole IgG made from the Fab in 293 Free Style cells; also called IgG m606; m606 IgG; not shown: rest of the IgG1 heavy chain constant region supplied by vector pDR12
By EC50 (read off the curve) is commonly meant the concentration giving half of the maximal effect. A lower EC50 (read off the curve) goes with greater potency. B1: the “EC50 (read off the curve)” value in test [1] was around 400 pM.

B2: Fab m606 (Fab, V domains shown)
VH: B1 VH
VL: B1 VL
notes: also called clone M606
Usually Kd stands for the free concentration of one partner at which half of the binding sites on the other are occupied at equilibrium, for simple one-to-one binding. A word on the kon: it is the rate constant with which the complex forms. Lower therefore signals slow association. One may read the EC50 as the concentration that produces a half-maximal response. The term koff denotes a measure of how fast the partners let go of each other. With B2, in test [2], the Ka was determined as 1.41e+09 M⁻¹, the Kd was found to be 711 pM and the kon worked out at 351000 M⁻¹ s⁻¹. The molecule also returned an EC50 in test [3] of around 4000 pM. In test [4], this molecule registered a Kd of 700 pM, a koff of 0.00025 s⁻¹ and an on-rate constant (kon) of 350000 M⁻¹ s⁻¹. The binding result in test [5] is on record as “no binding”. Moreover, the binding result in test [6] was “no binding”. In addition, the “EC50 (read off the curve)” value in test [7] is around 6000 pM.

B3: Fab m616 (Fab, V domains shown)
VH: SQVQVLVKPSQTLSLTCAISGDSVSSNSAAWNWIRQSPSRGLEWLGRTYYRSKWYNDYAVSVKSRITINPDTSKNQFSLQLNSVTPEDTAVYYCAREKGIGRGITGTTIPYNWFDPWGQGTLVTVSS
VL: SSYEITQPPSVSVTPGQTARITCSGDALPKHFAYWYQQKPGQAPVLIIYKDTERPSGIPERFSGSNSGNTATLTISRVEAGDEADYYCQVWDSSSGWVFGGGTKLTVQG
notes: Soluble Fab from E. coli periplasm; also called clone M616
Turning to B3, in test [3], the EC50 was around 4000 pM. Further, in test [6], the binding result was “no binding”.

B4: IgG1 m610 (antibody, V domains shown)
VH: QVQLVQSGAEVKKPGASVKVSCKASGYTFTSYYMHWVRQAPGQGLEWMGIINPSGGSTSYAQKFQGRVTMTRDTSTSTVYMELSRLRSDDTAVYYCARDVQWLAYGMDVWGQGTTVTVSS
VL: not shown
notes: Whole IgG made from the Fab in 293 Free Style cells; also called IgG m610; IgG M610; not shown: rest of the IgG1 heavy chain constant region supplied by vector pDR12
As to B4, the figures for the “EC50 (read off the curve)” value in test [1] and in test [8] were around 500 pM and around 400 pM, respectively.

B5: Fab m610 (Fab, V domains shown)
VH: B4 VH
VL: not shown
notes: also called clone M610
In test [2], B5 showed a Ka of 1.09e+09 M⁻¹, a Kd of 918 pM, a koff of 0.000262 s⁻¹ and a kon of 286000 M⁻¹ s⁻¹. Besides, the concentration giving a half-maximal response (EC50) in test [3] was around 4000 pM. In test [4], this molecule returned a Kd of 900 pM, a koff of 0.00026 s⁻¹ and an association rate constant (kon) of 290000 M⁻¹ s⁻¹. In addition, in test [6], the binding result was “no binding”.

(Values after patent US20080193465A1 (US Dept. of Health and Human Services, published 2008).)
